For five variants, response results are on record in paper PMC5290273 (Nature Communications, 2017).

First the molecules themselves.
B1: Sumo-ELL2^Occ, wild type [human] / fluorescently labelled AFF1^ELLBow peptide 358–390 [modified: C-FAM-GABA- at the N-terminus (FAM: 5-carboxyfluoroscein; GABA: γ-amino-butyric acid spacer); C-terminal amide; C-FAM-GABA- at the N-terminus … (parent complex)
chain 1: EPSAIELPDYLIKYIAIVSYEQRQNYKDDFNAEYDEYRALHARMETVARRFIKLDAQRKRLSPGSKEYQNVHEEVLQEYQKIKQSSPNYHEEKYRCEYLHNKLAHIKRLIGEFDQQQAESWS
chain 2: EILKEMTHSWPPPLTAIHTPSTAEPSKFPFPTK
B2: His6-tagged wild-type AFF4^ELLBow (AFF4 301–351) [human] / Sumo-ELL2^Occ, wild type [human] (parent complex)
chain 1: PSQPLDASASGDVSCVDEILKEMTHSWPPPLTAIHTPCKTEPSKFPFPTKE
chain 2: B1 chain 1

Variants of B1 are the subject of one assay. Briefly: fluorescence polarisation, direct titration; signal at the highest Sumo-ELL2 concentration, about 30 µM read from the x axis; read off a plot. A general note: Polarisation of emitted light reports the rotation of a fluorescent probe.
Consider chain 1 H41E, chain 1 H90E, chain 1 N101A, chain 1 K107T, for which the response was approximately 7 mP.

Variants of B2 are the subject of a further assay. Briefly: fluorescence polarisation competition; residual anisotropy at the highest unlabelled AFF4 concentration, about 30 µM read from the x axis; higher residual anisotropy = weaker competition; read off a plot.
Take chain 1 D17P, chain 1 E18P: the response was approximately 7 mP.

A further assay covers variants of B2. The description is as above. The source holds these as a separate data set.
On to chain 1 W27D, chain 1 L31D, chain 1 I34D, for which the response was approximately 46 mP.

On to chain 1 L31D, chain 1 I34D, for which the response was approximately 17 mP.

Take chain 1 M23D, chain 1 L31D, chain 1 I34D: the response is approximately 63 mP.
